Measured values taken from the DeepSol protein solubility set.

Assay: soluble on expression in E. coli; label from the status in PepcDB or PDB records

## MELKNKKWTDEEFHKQREEVLQQWPTGKEVDLQEAVDYLKKIPAEKNFAEKLVLAKKKGITMAQPRAGVALLDEHIELLRYLQDEGGADFLPSTIDAYTRQNRYDECENGIKESEKAGRSLLNGFPGVNFGVKGCRKVLEAVNLPLQARHGTPDSRLLAEIIHAGGWTSNEGGGISYNVPYAKNVTIEKSLLDWQYCDRLVGFYEEQGVHINREPFGPLTGTLVPPSMSNAVGITEALLAAEQGVKNITVGYGECGNMIQDIAALRCLEEQTNEYLKAYGYNDVFVTTVFHQWMGGFPQDESKAFGVIVTATTIAALAGATKVIVKTPHEAIGIPTKEANAAGIKATKMALNMLEGQRMPMSKELETEMAVIKAETKCILDKMFELGKGDLAIGTVKAFETGVMDIPFGPSKYNAGKMMPVRDNLGCVRYLEFGNVPFTEEIKNYNRERLQERAKFEGRDVSFQMVIDDIFAVGKGRLIGRPE
  soluble on expression in E. coli: soluble

## MTSVNLSYPIGEYKPRESISKEQKDKWIQVLEEVPAKLKQAVEVMTDSQLDTPYRDGGWTVRQVVHHLADSHMNSYIRFKLSLTEETPAIRPYDEKAWSELKDSKTADPSGSLALLQELHGRWTALLRTLTDQQFKRGFYHPDTKEIITLENALGLYVWHSHHHIAHITELSRRMGWS
  soluble on expression in E. coli: soluble

## MTNLETYFKNSQPLNEYIDGMKTNQDTVLSIYQSFELPEDDSRIKKIKEMNYSKVLVITEDWCGDAMMNLPILKHISEALNLEVRVFHRDDDTKLIDQYLTNGKSRAIPIFVFLNDQFEQETVWGPRANEVQKFVTDVRADKLPSKDHPDYADLEKETHLVISNRYKTDASFWKAVYNSILNKLENK
  soluble on expression in E. coli: not soluble

## VAKRLDLTDVNIYYGSFHAVADVSLAILPRSVTAFIGPSGCGKTTVLRTLNRMHEVIPGARVEGAVLLDDQDIYAPGIDPVGVRRAIGMVFQRPNPFPAMSIRNNVVAGLKLQGVRNRKVLDDTAESSLRGANLWDEVKDRLDKPGGGLSGGQQQRLCIARAIAVQPDVLLMDEPCSSLDPISTMAIEDLISELKQQYTIVIVTHNMQQAARVSDQTAFFNLEAVGKPGRLVEIASTEKIFSNPNQKATEDYISGRFG
  soluble on expression in E. coli: not soluble

## MGSDKIHHHHHHDYKLVIFASFNGKAYSDNPRYLFEYLRDHEEFASYHFVWAFKVKRSVNRAKVVKFNSFSYYYLLSKAKYWVFNSKMAPYYHKKGEQVYLQTWHGTPLKRLGHDILDNGITYYRSRLSYQQMLRSYDEDSRHWDYLISPNPFSSQAFTSAFNLDRGKLLEVGYPRVDFLVNADSNKCMELKRRYGLPLDKKVVLYAPTWRDDSFGIRGYRFELAVDFYKWKNQLGDDTVILFKPHYLISNVYQIPNDLSNFVYLMAASADINDAYLMSDVLITDYSSVFFDYANLNRPIYFYMYDFEQYEQELRGFYLNVPDELPNDVIRTEKELLRRIKEDIFDYDRLQVFNQVFNSWNDGKVSSKVAKRIFYEN
  soluble on expression in E. coli: not soluble

## MRFKVVGKNIVVTEALKEAAVKKVGKLDKYFRRDAEATITMSVQKNRHIVEVTIPFEGGLLRAEEDSPDMYASIDKVIDSLERQIRRNKTKLEKKVHDGSLRFENIKFDDDEVEEEPKFEVVRTKKFAIKPMTVEEAILQMNLLGHQFFMFSNAETNEANVVYRRKDGNYGLIEPEF
  soluble on expression in E. coli: not soluble

## MVKRNKVIKQQSCPLIDTINVISRKWLLLVLNTIGNEGKLGFNSILNSIDDISPKALSDVLKTMEEMGLVKKVIVKSSPPRVEYSLTYEGKKLRKAVIPLFKWAAEHTGHYECPILQSNKLNKEEYS
  soluble on expression in E. coli: soluble

## MSRRRIRKFERPEEALLHLLDAAGIYRVGSRVWLHKPRVRELGFQYLAVETLVREYALAAEREYRGSVVYSKVYGGREYKILLGRGEEVAEASLADPSTVQRLLFSWRHLEELLPSPPLPAFVVDLSLKFMHTEEELSKLRLQIAVALSEVRKYLWDPHLVLTNMDPQTSGWISEVLGDNKVTISQSKPSEILWSMDADRVVILRPDAPQPLSGSEVLAADAFLIGGIVDRIPRPGVSRILDNLVPWGVPRRIELRGSVAGVPERINRIVEILLKARYKYPGNLEKAIITSMTKKDVLTRVYSEIIKRGRRVGSELVVEWSLYEDLSSWLPLTPEDFMLAAKRARARIEGAPRRDNALEHHHHHH
  soluble on expression in E. coli: not soluble

## MGSDKIHHHHHHMDTDLLRAFVTVAECEGFSAAGKVLHRTQSAVSLQIKRLEDQMGESLFERTSRSVVLTPPGGRLLPYARHILKLQDEARRVMGVDRQGELIRLGTSEEQASTYLPELLPRFAARFPEVRLEVSCSISGSLVHDFQEGLLDVALVVRHGPTQTGRLLGREPMVWVVAEDRAIDDWEILPLALNPEGCIFRAHAFAALGPTERRWDVRYSSRSPTGINLPVQAGLAATVKTPRSVPEGCRIVGEEEGLPPLGHVEIEMHRTPGHSSDAFVAFCDELEHIVTATDSLESLEYVAAEG
  soluble on expression in E. coli: not soluble

## GMAKIEKNAPTMEKKPELFNIMEVDGVPTLILSKEWWEKVANFQAKPDDLILATYPKSGTTWMHEILDMILNDGDVEKCKRAQTLDRHAFLELKFPHKEKPDLEFVLEMSSPQLIKTHLPSHLIPPSIWKENCKIVYVARNPKDCLVSYYHFHRMASFMPDPQNLEEFYEKFMSGKVVGGSWFDHVKGWWAAKDMHRILYLFYEDIKKDPKREIEKILKFLEKDISEEILNKIIYHTSFDVMKQNPMTNYTTLPTSIMDHSISPFMRKGMPGDWKNYFTVAQNEEFDKDYQKKMAGSTLTFRTEI
  soluble on expression in E. coli: soluble

## MRVKIRRELLEYLLELAKSFYPREVAGFLRMKDGVFEEVLIVPKGFFGESSVYFDLTLMPHDESIKGTFHSHPSPFPYPSEGDLMFFSKFGGIHIIAAFPYDEDSVKAFDSEGREVELEVID
  soluble on expression in E. coli: soluble

## MGSDKIHHHHHHMRFGWLEQPFTTLEQLDSLFEIHSPRKFTFADSFYAHENGRHFIFFEEVDDQHPVGFLSVLEVFKDGTYTPPETILKLDYHLSYPCVFKIDSTWYMIPESSANKTIELWKCTDFPMKWEKHSNLMENIEAVDSTPFYHEGLWYLFTSTRRDCKKFGDRLDLFFTEDILNPNWQEHPMNPACRGSQQFRMAGKPFIYKGQLVRPSQDSLKRYGGNIELKAITQLSPAAYEEKLLEVVLPDWNQADDGCHTINVEDNFVVLDAIRLTPKNN
  soluble on expression in E. coli: not soluble

## MGSDKIHHHHHHMDTAPLLPSSIRDQFTREVVYLNTATCGLPPRVAHEATLAVERDRARGRLTLDIAHQAVERSRAAFARLVGVPVSRVAVGSQASFFVGLVAASLPPGATVVVAEEDFTSVTYPFLAATGRGVTVRPVPLDRIIDAVDTSVDLVSVSVVQSADGRIVDVPALLDAAATHGARVLLDTTQSSGWLPIPADRVDYLVCSAYKWLLGPRGACFFAGTDDALAELTPIAANWFAAEDITSAFYGTELRLASDARRFDLSPAWASCVGLAPALELLADLGEAALGAHNVALANRFCAALGLPPTDSAIVSVAVDAKAQQVLADAGIVAAMRAGRMRCAFHLSTDAADVDRAVEEIGPYLRDANLEEAVRVPGDR
  soluble on expression in E. coli: not soluble

## MELAKKTGATVIGSAEMADYLSSYHGVENVHGMNIGGKANFDFGSVKFVQAFHSSSFTHENGIPVYLGMPMGIVFEVEGKTIYHTGDTGLFSDMSLIAKRHPVDVCFVPIGDNFTMGIDDASYAINEFIKPKISVPIHYDTFPLIEQDPQQFKDAVNVGDVQILKPGESVQFLEHHHHHH
  soluble on expression in E. coli: not soluble

## SNAMKFLTVSDDMNFLRQVNTLVAGKGDMDSVIIGEGDAKGLGSKVLYRAKKGTPFDAVSEGILKIAGNYDYIAIGSTEVGREIAGYLSFKTGFYTATEIFSLEFNGQKAHTKRFFYGGKTVIEEESDARILTVAPGVIEAKDLGTTPEIRDLEIGQSRIKITKFV
  soluble on expression in E. coli: soluble
